In experiment [1] the target is T1, Png1p-ΔH1 (33-363 aa), N-terminal H1 helix deletion mutant of S. cerevisiae Png1p (S. cerevisiae, UniProt Q02890 33-363).
T1 construct: Png1p (peptide:N-glycanase), S. cerevisiae W303-1a, amino acids 33-363 (lacks the N-terminal H1 helix), cloned into EcoRI and HindIII sites of pET-22b(+); Plasmid pET-22b/png1p-ΔH1; eluted as 'Protein-His6'; also called N-terminal H1 deletion mutant; source: E. coli BL21 (DE3) pLysS, purified (Ni2+-NTA)
T1 sequence (looked up): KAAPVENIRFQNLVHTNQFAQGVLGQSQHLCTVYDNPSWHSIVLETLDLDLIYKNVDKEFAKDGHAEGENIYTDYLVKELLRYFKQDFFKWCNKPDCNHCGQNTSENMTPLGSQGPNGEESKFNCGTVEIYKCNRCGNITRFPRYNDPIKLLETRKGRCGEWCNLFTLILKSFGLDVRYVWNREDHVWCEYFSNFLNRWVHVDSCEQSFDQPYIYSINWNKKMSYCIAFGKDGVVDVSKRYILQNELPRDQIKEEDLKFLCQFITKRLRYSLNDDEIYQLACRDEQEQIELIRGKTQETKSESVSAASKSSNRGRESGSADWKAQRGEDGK
As to the kind of experiment: SPR; RNase B (40 µg/ml, 10 mM sodium acetate pH 5.31) amine-coupled to a CT405 chip; Png1p or Png1p-ΔH1 as analytes (80-1000 nM), 25°C, 10 mM HEPES pH 7.4, 5 µl/min; 1:1 Langmuir model, global fit; KD = koff/kon. The settings on record: both partners purified.

Experiment [2] addresses T2, Peptide:N-glycanase from yeast (Png1p), full length (S. cerevisiae, UniProt Q02890 1-363).
T2 construct: Png1p (peptide:N-glycanase), S. cerevisiae W303-1a, gene amplified from genomic DNA, amino acids 1-363, cloned into EcoRI and HindIII sites of pET-22b(+); Plasmid pET-22b/png1p; eluted as 'Protein-His6'; The vector may add further residues at the N-terminus (cloning at EcoRI of pET-22b); also called PNGase; wild type Png1p; source: E. coli BL21 (DE3) pLysS, purified (Ni2+-NTA)
T2 sequence (looked up): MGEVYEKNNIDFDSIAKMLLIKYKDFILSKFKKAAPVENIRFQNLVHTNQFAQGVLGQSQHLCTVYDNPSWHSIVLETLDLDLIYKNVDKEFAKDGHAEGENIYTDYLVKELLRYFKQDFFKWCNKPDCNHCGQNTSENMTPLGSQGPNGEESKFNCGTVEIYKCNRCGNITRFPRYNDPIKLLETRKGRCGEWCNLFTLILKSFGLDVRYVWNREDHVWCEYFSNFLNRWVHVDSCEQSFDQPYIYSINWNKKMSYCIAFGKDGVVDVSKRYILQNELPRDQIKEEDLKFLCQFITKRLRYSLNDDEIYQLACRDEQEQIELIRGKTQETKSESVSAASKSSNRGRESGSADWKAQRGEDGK
The description is as above. The settings on record: both partners purified.

B1: Ribonuclease B (RNase B), denatured (natural protein, UniProt P61823 27-150, looked up)
chain: KETAAAKFERQHMDSSTSAASSSNYCNQMMKSRNLTKDRCKPVNTFVHESLADVQAVCSQKNVACKNGQTNCYQSYSTMSITDCRETGSSKYPNCAYKTTQANKHIIVACEGNPYVPVHFDASV
modifications: N-linked glycan (glycoprotein; position not stated)
notes: Ribonuclease B, the glycosylated form of pancreatic ribonuclease; Denatured by heating at 100°C for 10 min and rapid freezing (deglycosylation methods); also called denatured RNase B
By Kd is commonly meant the free concentration of one partner at which half of the binding sites on the other are occupied at equilibrium, for simple one-to-one binding. Low values mean tighter binding, high ones weaker binding. In general, koff refers to the rate constant with which the complex falls apart. Read a high koff as fast dissociation. In general, kon refers to the rate constant with which the complex forms. As for B1, in experiment [1], the Kd turned out to be 2.9 µM, the koff turned out to be 0.05 s⁻¹ and the kon is 17000 M⁻¹ s⁻¹. Besides, in experiment [2], binding was put at a Kd of 7.7 µM, the koff was found to be 0.094 s⁻¹ and the kon stood at 12200 M⁻¹ s⁻¹.

For the origin of these results see publication PMC2791212, “N-Terminal Deletion of Peptide:N-Glycanase Results in Enhanced Deglycosylation Activity” (PLoS ONE, 2009).
